Laboratory results taken from US20240209399A1.

Target: TnsC-BP-NLS-VP64 (plasmid pSL2783, p6A_hCO_Vch_TnsC_BP-NLS-VP64) (Vibrio cholerae)
Experiment: cell-based or functional assay

TnsABf (plasmid pSL2669, pcDNA3.1_hCO_Vch_TnsA_BP-NLS_TnsB)
level of transcriptional activation (mCherry MFI relative to the non-targeting control, HEK293T reporter assay): 2 fold
